Patent US20030165887A1 (BURNHAM INSTITUTE, published 2003)

T1: TUCAN (Tumor Up-regulated CARD-containing Antagonist of Caspase Nine), full-length (Homo sapiens (Human), UniProt Q9Y2G2 131-537)
T1 construct: Full-length TUCAN expressed by transient transfection in HEK293T cells; also called full-length TUCAN; CARD-X
T1 sequence: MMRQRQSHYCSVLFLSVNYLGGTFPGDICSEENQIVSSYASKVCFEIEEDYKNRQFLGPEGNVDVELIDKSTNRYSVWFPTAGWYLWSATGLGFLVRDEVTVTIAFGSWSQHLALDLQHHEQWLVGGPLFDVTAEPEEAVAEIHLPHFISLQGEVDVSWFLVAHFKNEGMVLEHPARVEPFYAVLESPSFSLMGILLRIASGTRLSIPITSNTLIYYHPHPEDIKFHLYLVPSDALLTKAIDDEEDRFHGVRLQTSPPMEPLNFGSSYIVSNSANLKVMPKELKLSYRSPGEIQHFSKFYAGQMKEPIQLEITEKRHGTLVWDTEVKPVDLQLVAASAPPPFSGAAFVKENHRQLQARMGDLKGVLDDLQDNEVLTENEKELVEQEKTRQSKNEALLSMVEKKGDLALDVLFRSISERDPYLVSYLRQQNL

B1: Bcl10 (CIPER; huE10) (other, UniProt O95999 1-233, looked up)
chain: MEPTAPSLTEEDLTEVKKDALENLRVYLCEKIIAERHFDHLRAKKILSREDTEEISCRTSSRKRAGKLLDYLQENPKGLDTLVESIRREKTQNFLIQKITDEVLKLRNIKLEHLKGLKCSSCEPFPDGATNNLSRSNSDESNFSEKLRASTVMYHPEGESSTTPFFSTNSSLNLPVLEVGRTENTIFSSTTLPRPGDPGAPPLPPDLQLEEEGTCANSSEMFLPLRSRTVSRQ
B2: pro-caspase-9 inactive mutant (Cys287/Ala) (enzyme)
chain: MDEADRRLLRRCRLRLVEELQVDQLWDALLSSELFRPHMIEDIQRAGSGSRRDQARQLIIDLETRGSQALPLFISCLEDTGQDMLASFLRTNRQAAKLSKPTLENLTPVVLRPEIRKPEVLRPETPRPVDIGSGGFGDVGALESLRGNADLAYILSMEPCGHCLIINNVNFCRESGLRTRTGSNIDCEKLRRRFSSPHFMVEVKGDLTAKKMVLALLELAQQDHGALDCCVVVILSHGCQASHLQFPGAVYGTDGCPVSVEKIVNIFNGTSCPSLGGKPKLFFIQAAGGEQKDHGFEVASTSPEDESPGSNPEPDATPFQEGLRTFDQLDAISSLPTPSDIFVSYSTFPGFVSWRDPKSGSWYVETLDDIFEQWAHSEDLQSLLLRVANAVSVKGIYKQMPGCFNFLRKKLFFKTS
B3: pro-Caspase-1 (enzyme, UniProt P29466 1-404, looked up)
chain: MADKVLKEKRKLFIRSMGEGTINGLLDELLQTRVLNKEEMEKVKRENATVMDKTRALIDSVIPKGAQACQICITYICEEDSYLAGTLGLSADQTSGNYLNMQDSQGVLSSFPAPQAVQDNPAMPTSSGSEGNVKLCSLEEAQRIWKQKSAEIYPIMDKSSRTRLALIICNEEFDSIPRRTGAEVDITGMTMLLQNLGYSVDVKKNLTASDMTTELEAFAHRPEHKTSDSTFLVFMSHGIREGICGKKHSEQVPDILQLNAIFNMLNTKNCPSLKDKPKVIIIQACRGDSPGVVWFKDSVGVSGNLSLPTTEEFEDDAIKKAHIEKDFIAFCSSTPDNVSWRHPTMGSVFIGRLIEHMQEYACSCDVEEIFRKVRFSFEQPDGRAQMPTTERVTLTRCFYLFPGH
B4: TUCAN fragment lacking the CARD (residues 1-337) (other)
chain: MMRQRQSHYCSVLFLSVNYLGGTFPGDICSEENQIVSSYASKVCFEIEEDYKNRQFLGPEGNVDVELIDKSTNRYSVWFPTAGWYLWSATGLGFLVRDEVTVTIAFGSWSQHLALDLQHHEQWLVGGPLFDVTAEPEEAVAEIHLPHFISLQGEVDVSWFLVAHFKNEGMVLEHPARVEPFYAVLESPSFSLMGILLRIASGTRLSIPITSNTLIYYHPHPEDIKFHLYLVPSDALLTKAIDDEEDRFHGVRLQTSPPMEPLNFGSSYIVSNSANLKVMPKELKLSYRSPGEIQHFSKFYAGQMKEPIQLEITEKRHGTLVWDTEVKPVDLQLVAAS
notes: also called ΔCARD; ΔCARD fragment of TUCAN

Columns and labels:
[1] = target: T1, TUCAN (Tumor Up-regulated …); assay: co-immunoprecipitation, transfected HEK293T cells, SDS-PAGE/immunoblot
Experimental: (§1) The TUCAN polypeptides were expressed by transient transfection in HEK293T cells together with epitope-tagged pro-caspase-9 or other proteins. […] Cell lysates were prepared from transfected cells and immunoprecipitations were performed using anti-Flag or anti-Myc antibodies, followed by SDS-PAGE/immunoblot analysis.

[2] = target: B4; assay: co-immunoprecipitation, transfected cells, SDS-PAGE/immunoblot
Experimental: as §1
(§2) To determine the role of the CARD domain within TUCAN for interactions with pro-Caspase-9, fragments of TUCAN were expressed. […] Self-association of TUCAN was also confirmed by co-immunoprecipitation experiments, using HA and Myc-tagged proteins and contrasting the full-length, CARD-only, and ΔCARD proteins.

[3] = target: T1, TUCAN (Tumor Up-regulated …); assay: co-immunoprecipitation with HA- and Myc-tagged proteins
Experimental: as §1, §2

binding result [1] | Binder | also measured
no binding | B1 | 
 | B2 | binding result [2]: no binding
no binding | B3 | 
 | B4 | binding result [3]: no binding
